Reference: patent US20250368735A1 (AKESO BIOPHARMA, published 2025)
Blank lines part the entries; values can stand above or below the binder they belong to.

Experiments:
CD47 IgV TEV-His [1] = biological target: T1, CD47 IgV TEV-His (human, UniProt Q08722 19-141); test: indirect ELISA screening with CD47 IgV TEV-His as antigen
T1 construct: range 19-141; also called human CD47 IgV TEV-His; not shown: his tag

[2] = biological target: T2, CLDN18.2 on the cell membrane surface (CHO-K1-CLDN18.2 cells, CHO-K1-CLDN18.2-CD47 cells, CHO-K1-hClaudin18.2 … (human, UniProt P56856-2 1-261)); test: indirect ELISA screening with CHO-K1-hClaudin18.2 cells as antigen
T2 construct: whole, on cells; also called human Claudin18.2

[3] = biological target: T3, human CLDN18.2 (ELISA coating antigen) (human, UniProt P56856-2 1-261, limits assumed); test: indirect ELISA, coated human CLDN18.2 2 µg/mL
T3 construct: also called antigen human CLDN18.2
Protocol: After blocking, the ELISA plate was washed 3 times with PBST. The ELISA plate containing the test antibodies was incubated at 37° C. for 30 min and then washed 3 times with PBST. […] The ELISA plate was put into a microplate reader immediately, and the OD value of each well in the ELISA plate was read at 450 nm. The data were analyzed and processed by SoftMax Pro 6.2.1.

CD47 IgV TEV-His [4] = biological target: T1, CD47 IgV TEV-His; test: indirect ELISA, coated CD47-Igv-TEV-his 2 µg/mL
Protocol: After blocking, the ELISA plate was washed 3 times with PBST. The ELISA plate containing the test antibodies was incubated at 37° C. for 30 min and then washed 3 times with PBST. […] The data were analyzed and processed by SoftMax Pro 6.2.1.

[5] = biological target: T4, CD47 on the cell membrane surface (CHO-K1-CLDN18.2-CD47 cells, 3T3-CD47 cells, human red blood cells, human T … (human, UniProt Q08722 19-323)); test: flow cytometry (FACS) on CHO-K1-CLDN18.2-CD47 cells, PE anti-human IgG Fc
T4 construct: whole, on cells; blood cells came from healthy human volunteers; also called cell membrane surface antigen CD47
Protocol: CHO-K1-CLDN18.2-CD47 cells (CHO-K1 cells overexpress CLDN18.2 and CD47 antigens, and are obtained from Cell Resource Center, Institute of Basic Medical Sciences, Chinese Academy of Medical Sciences) in the logarithmic growth phase were collected, and were transferred to a V-bottomed 96-well plate at 1×10⁵ cells/well. 100 μL of 1% PBSA (PBS+1% BSA) was added, and the mixture was centrifuged at 1000×g for 5 min, followed by removal of the supernatant. […] The mixture was mixed gently and well, and then incubated on ice for 40 min. 150 μL of 1% PBSA was added to each well, and the mixture was centrifuged at 1000×g for 5 min. The supernatant was discarded, and the plate was further washed three times at 200 μL/time. […] The diluted antibody was added to corresponding samples at 100 μL/well, and the cell pellet was resuspended and incubated on ice in the dark for 0.5 h. 150 μL of 1% PBSA was added to each well, and the mixture was centrifuged at 1000 g for 5 min, followed by removal of the supernatant. Then the plate was washed twice with 200 μL of 1% PBSA. 200 μL of 1% PBSA was added to each well to resuspend the cell pellet, and the mixture was transferred to a flow cytometry tube. FACS Calibur assay was performed, and the binding activity was analyzed.

CD47 ECD-His = biological target: T5, CD47 ECD-His (human, UniProt Q08722 19-141, limits assumed); test: BLI (Fortebio Octet), antibody on AHC sensor, CD47 ECD-His 4.94-400 nM, 1:1 fit
T5 construct: extracellular domain; also called human CD47 ECD-His; not shown: His tag
Protocol: The affinity constant of the antibody for human CLDN18.2 and CD47 ECD-His was determined using a Fortebio Octer molecular interaction instrument. The sample dilution buffer was PBS (0.02% Tween-20, 0.1% BSA, pH 7.4). The method for detecting the affinity of the antibody for human CLDN18.2 is as follows. The antibody at 20 nM was immobilized on an AHC sensor for 60 s. The sensor was equilibrated in a buffer for 60 s, and the binding of the immobilized antibody on the sensor to CLDN18.2 His at concentrations of 6.25-100 nM (two-fold dilution) was determined for 180 s. The protein was dissociated in the buffer for 360 s. The method for detecting the affinity of the antibody to human CD47 ECD-His is as follows. The antibody at 30 nM was immobilized on an AHC sensor for 120 s. The sensor was equilibrated in a buffer for 60 s, and the binding of the immobilized antibody on the sensor to the protein CD47 ECD-His at concentrations of 4.94-400 nM (three-fold dilution) was determined for 50 s. The protein was dissociated in the buffer for 120 s. The shaking speed of the sample plate was 1000 rpm, the temperature was 30° C., and the frequency was 5.0 Hz. The data were analyzed by 1:1 model fitting to obtain affinity constants. The data acquisition software was Fortebio Data Acquisition 12.0, and the data analysis software was Fortebio Data Analysis HT 12.0.

[6] = biological target: T4, CD47 on the cell membrane surface …; test: competitive flow cytometry on CHO-K1-CLDN18.2-CD47 cells; competitor hSIRPaV2-hFc-mFc at 3 nM
Protocol: 100 μL of 1% PBSA was then added to each well, and the mixture was centrifuged and washed.

binding result [2]: binds
B2: 8C5.1 (antibody, V domains shown)
VH: EVQLVESGGGLVKPGGSLKLSCAASGFTFSNSAVSWVRQTPEKRLEWVATITSGVSYTYYLDSVRGRFTISRDNAKNTLYLQMSSLRSEDTAMYYCTRQFKGNALDYWGQGTSVTVSS
VL: DIVMTQSPSSLTVTAGEKVTMSCKSSQSLLNSGNQKNYLTWYQQKPGQPPKLLIYWASTRESGVPDRFTGSGSGTDFTLTINNFQAEDLAVYYCQNDYFYPLTFGAGTKLELK
notes: Mouse hybridoma antibody; also called anti-CLDN18.2 antibody 8C5.1; monoclonal antibody secreted by hybridoma cell line LT020

EC50 [3]: 0.014 nM
B3: IMAB362 (antibody, V domains shown)
VH: QVQLQQPGAELVRPGASVKLSCKASGYTFTSYWINWVKQRPGQGLEWIGNIYPSDSYTNYNQKFKDKATLTVDKSSSTAYMQLSSPTSEDSAVYYCTRSWRGNSFDYWGQGTTLTVSS
VL: DIVMTQSPSSLTVTAGEKVTMSCKSSQSLLNSGNQKNYLTWYQQKPGQPPKLLIYWASTRESGVPDRFTGSGSGTDFTLTISSVQAEDLAVYYCQNDYSYPFTFGSGTKLEIKR

The remaining lines, values behind:

B1: 6F7 (antibody, V domains shown)
VH: QVQLQQPGAELVRPGASVKLSCKASGYTFTSYWMNWVKQRPGQGLEWIGMIDPSDSETHNNQMFKDKATLTVDKSSNTAYMHLSSLTSEDSAVYHCARLYRWYFDVWGAGTTVTVSS
VL: NIVMTQSPKSMSMSLGERVTLSCKASEIVGTYVSWFQQKPHQSPKLLIYGASNRYTGVPDRFTGSGSATDFTLTISNVQAEDLADYHCGQSYNFPYTFGGGTKLEIK
notes: Mouse hybridoma antibody; also called anti-CD47 antibody 6F7; monoclonal antibody secreted by hybridoma cell line LT012
binding result (CD47 IgV TEV-His [1]): binds

B4: 6F7H1L1(hG4) (antibody, V domains shown)
VH: QVQLVQSGAEVVKPGASVKLSCKASGYTFTSYWMNWVRQRPGQGLEWIGMIDPSDSETHNAQKFQGKATLTVDKSTSTAYMHLSSLRSEDTAVYYCARLYRWYFDVWGAGTTVTVSS
VL: NIVMTQSPATMSMSPGERVTLSCRASEIVGTYVSWFQQKPGQAPRLLIYGASNRYTGVPARFSGSGSGTDFTLTISSVQPEDLADYHCGQSYNFPYTFGGGTKLEIKR
EC50 (CD47 IgV TEV-His [4]): 0.012 nM
EC50 [5]: 1.29 nM
Kd (CD47 ECD-His): 27.3 nM
koff (CD47 ECD-His): 0.0142 s⁻¹
kon (CD47 ECD-His): 519000 M⁻¹ s⁻¹
EC50 [6]: 5 nM
